In patent US20120321699A1:

How the values were obtained:
SSB autoantigen [1] = experiment: Athena assay, mAb 6.25 ug/ml; positive >50
SSA autoantigen [2] = experiment: Athena assay, mAb 6.25 ug/ml; positive >50
Histone autoantigen [3] = experiment: Athena assay, mAb 6.25 ug/ml; positive >50
Sm autoantigen [4] = experiment: Athena assay, mAb 6.25 ug/ml; positive >50
RNP autoantigen [5] = experiment: Athena assay, mAb 6.25 ug/ml; positive >50
centromere B autoantigen [6] = experiment: Athena assay, mAb 6.25 ug/ml; positive >50
Scl 70 autoantigen [7] = experiment: Athena assay, mAb 6.25 ug/ml; positive >50
Jo 1 autoantigen [8] = experiment: Athena assay, mAb 6.25 ug/ml; positive >50
SSB autoantigen [9] = experiment: Athena assay, mAb 12.5 ug/ml; positive >50
SSA autoantigen [10] = experiment: Athena assay, mAb 12.5 ug/ml; positive >50
Histone autoantigen [11] = experiment: Athena assay, mAb 12.5 ug/ml; positive >50
Sm autoantigen [12] = experiment: Athena assay, mAb 12.5 ug/ml; positive >50
RNP autoantigen [13] = experiment: Athena assay, mAb 12.5 ug/ml; positive >50
centromere B autoantigen [14] = experiment: Athena assay, mAb 12.5 ug/ml; positive >50
Scl 70 autoantigen [15] = experiment: Athena assay, mAb 12.5 ug/ml; positive >50
Jo 1 autoantigen [16] = experiment: Athena assay, mAb 12.5 ug/ml; positive >50
[17] = target: Env of HIV-1 JRCSF.N160K (HIV-1) (UniProt P20871); experiment: cell-based or functional assay
[18] = target: Env of HIV-1 JRFL.N160K.E168K (HIV-1); experiment: cell-based or functional assay
[19] = target: Env of HIV-1 Q23.17.N160K (HIV-1); experiment: cell-based or functional assay
[20] = target: Env of HIV-1 clade B isolate 7165.18 (HIV-1); experiment: cell-based or functional assay
[21] = target: Env of HIV-1 clade B isolate JRFL (virus) (HIV-1); experiment: cell-based or functional assay
[22] = target: Env of HIV-1 clade A isolate Q23.17 (HIV-1); experiment: cell-based or functional assay
[23] = target: Env of HIV-1 7165.18.N160K (HIV-1); experiment: cell-based or functional assay
[24] = target: Env of HIV-1 JRFL.E168K (HIV-1); experiment: cell-based or functional assay
CM 243 gp120 (HIV-1) = experiment: ELISA on monomeric envelope
[25] = target: HV00046 (902114 B2 140C) (HIV-1); experiment: ELISA on monomeric envelope
[26] = target: Influenza HA (Wisconsin) (influenza virus); experiment: Luminex assay, antibody 50 µg/ml
SSB autoantigen [27] = experiment: Athena assay, mAb 25 ug/ml; positive >50
SSA autoantigen [28] = experiment: Athena assay, mAb 25 ug/ml; positive >50
Histone autoantigen [29] = experiment: Athena assay, mAb 25 ug/ml; positive >50
Sm autoantigen [30] = experiment: Athena assay, mAb 25 ug/ml; positive >50
RNP autoantigen [31] = experiment: Athena assay, mAb 25 ug/ml; positive >50
centromere B autoantigen [32] = experiment: Athena assay, mAb 25 ug/ml; positive >50
Scl 70 autoantigen [33] = experiment: Athena assay, mAb 25 ug/ml; positive >50
Jo 1 autoantigen [34] = experiment: Athena assay, mAb 25 ug/ml; positive >50
A244 gD- gp120 (HIV-1) = experiment: SPR
SSB autoantigen [35] = experiment: Athena assay, mAb 50 ug/ml; positive >50
SSA autoantigen [36] = experiment: Athena assay, mAb 50 ug/ml; positive >50
Histone autoantigen [37] = experiment: Athena assay, mAb 50 ug/ml; positive >50
Sm autoantigen [38] = experiment: Athena assay, mAb 50 ug/ml; positive >50
RNP autoantigen [39] = experiment: Athena assay, mAb 50 ug/ml; positive >50
centromere B autoantigen [40] = experiment: Athena assay, mAb 50 ug/ml; positive >50
Scl 70 autoantigen [41] = experiment: Athena assay, mAb 50 ug/ml; positive >50
Jo 1 autoantigen [42] = experiment: Athena assay, mAb 50 ug/ml; positive >50
[43] = target: Env of HIV-1 clade B isolate JR-CSF (HIV-1) (UniProt P20871); experiment: cell-based or functional assay
HCV E2 (HCV) = experiment: Luminex assay, antibody 50 µg/ml
[44] = target: A244gD+ gp120 (herpes simplex virus; HIV-1); experiment: SPR
[45] = target: HV00043 (63521 TC21 140C) (HIV-1); experiment: SPR
[46] = target: HV00044 (6240 TZ5 140C) (HIV-1); experiment: SPR
HIV-1 Env gp41 (HIV-1) = experiment: Luminex bead assay

CH01 (antibody)
Autoreactivity (Athena) (SSB autoantigen [1]): 5.5 | Autoreactivity (Athena) (SSA autoantigen [2]): 5.5 | Autoreactivity (Athena) (Histone autoantigen [3]): 10 | Autoreactivity (Athena) (Sm autoantigen [4]): 2.5 | Autoreactivity (Athena) (RNP autoantigen [5]): 4 | Autoreactivity (Athena) (centromere B autoantigen [6]): 7 | Autoreactivity (Athena) (Scl 70 autoantigen [7]): 1.5 | Autoreactivity (Athena) (Jo 1 autoantigen [8]): 2 | Autoreactivity (Athena) (SSB autoantigen [9]): 5 | Autoreactivity (Athena) (SSA autoantigen [10]): 5 | Autoreactivity (Athena) (Histone autoantigen [11]): 13.5 | Autoreactivity (Athena) (Sm autoantigen [12]): 3 | Autoreactivity (Athena) (RNP autoantigen [13]): 4.5 | Autoreactivity (Athena) (centromere B autoantigen [14]): 10 | Autoreactivity (Athena) (Scl 70 autoantigen [15]): 2 | Autoreactivity (Athena) (Jo 1 autoantigen [16]): 2 | IC50 ug/ml (virus neutralization) [17]: > 50 µg/mL | IC80 ug/ml (virus neutralization) [17]: > 50 µg/mL | IC50 ug/ml (virus neutralization) [18]: > 50 µg/mL | IC80 ug/ml (virus neutralization) [18]: > 50 µg/mL | IC50 ug/ml (virus neutralization) [19]: > 50 µg/mL | IC80 ug/ml (virus neutralization) [19]: > 50 µg/mL | IC50 ug/ml (virus neutralization) [20]: 5.82 µg/mL | IC80 ug/ml (virus neutralization) [20]: > 50 µg/mL | IC50 ug/ml (virus neutralization) [21]: > 50 µg/mL | IC80 ug/ml (virus neutralization) [21]: > 50 µg/mL | IC50 ug/ml (virus neutralization) [22]: 0.014 µg/mL | IC80 ug/ml (virus neutralization) [22]: 0.035 µg/mL | IC50 ug/ml (virus neutralization) [23]: > 50 µg/mL | IC80 ug/ml (virus neutralization) [23]: > 50 µg/mL | IC50 ug/ml (virus neutralization) [24]: 0.044 µg/mL | IC80 ug/ml (virus neutralization) [24]: 0.382 µg/mL | EC50 (CM 243 gp120 (HIV-1)): 12700 nM | EC50 [25]: 63200 nM | background substracted RFUs [26]: 0 RFU | Autoreactivity (Athena) (SSB autoantigen [27]): 5.5 | Autoreactivity (Athena) (SSA autoantigen [28]): 6.5 | Autoreactivity (Athena) (Histone autoantigen [29]): 17.5 | Autoreactivity (Athena) (Sm autoantigen [30]): 4 | Autoreactivity (Athena) (RNP autoantigen [31]): 5.5 | Autoreactivity (Athena) (centromere B autoantigen [32]): 14 | Autoreactivity (Athena) (Scl 70 autoantigen [33]): 3 | Autoreactivity (Athena) (Jo 1 autoantigen [34]): 2.5 | Kd (A244 gD- gp120 (HIV-1)): 340 nM | Autoreactivity (Athena) (SSB autoantigen [35]): 5.5 | Autoreactivity (Athena) (SSA autoantigen [36]): 8 | Autoreactivity (Athena) (Histone autoantigen [37]): 26 | Autoreactivity (Athena) (Sm autoantigen [38]): 4 | Autoreactivity (Athena) (RNP autoantigen [39]): 8 | Autoreactivity (Athena) (centromere B autoantigen [40]): 22 | Autoreactivity (Athena) (Scl 70 autoantigen [41]): 4 | Autoreactivity (Athena) (Jo 1 autoantigen [42]): 3.5

PG16 (antibody)
Autoreactivity (Athena) (SSB autoantigen [1]): 5 | Autoreactivity (Athena) (SSA autoantigen [2]): 5 | Autoreactivity (Athena) (Histone autoantigen [3]): 8 | Autoreactivity (Athena) (Sm autoantigen [4]): 2 | Autoreactivity (Athena) (RNP autoantigen [5]): 2 | Autoreactivity (Athena) (centromere B autoantigen [6]): 5 | Autoreactivity (Athena) (Scl 70 autoantigen [7]): 2 | Autoreactivity (Athena) (Jo 1 autoantigen [8]): 2 | Autoreactivity (Athena) (SSB autoantigen [9]): 4 | Autoreactivity (Athena) (SSA autoantigen [10]): 4 | Autoreactivity (Athena) (Histone autoantigen [11]): 8 | Autoreactivity (Athena) (Sm autoantigen [12]): 2 | Autoreactivity (Athena) (RNP autoantigen [13]): 3 | Autoreactivity (Athena) (centromere B autoantigen [14]): 4 | Autoreactivity (Athena) (Scl 70 autoantigen [15]): 1 | Autoreactivity (Athena) (Jo 1 autoantigen [16]): 1 | IC50 ug/ml (virus neutralization) [17]: > 50 µg/mL | IC80 ug/ml (virus neutralization) [17]: > 50 µg/mL | IC50 ug/ml (virus neutralization) [43]: 0.003 µg/mL | IC80 ug/ml (virus neutralization) [43]: 0.012 µg/mL | IC50 ug/ml (virus neutralization) [18]: > 50 µg/mL | IC80 ug/ml (virus neutralization) [18]: > 50 µg/mL | IC50 ug/ml (virus neutralization) [19]: > 50 µg/mL | IC80 ug/ml (virus neutralization) [19]: > 50 µg/mL | IC50 ug/ml (virus neutralization) [20]: 11.8 µg/mL | IC80 ug/ml (virus neutralization) [20]: > 50 µg/mL | IC50 ug/ml (virus neutralization) [21]: > 50 µg/mL | IC80 ug/ml (virus neutralization) [21]: > 50 µg/mL | IC50 ug/ml (virus neutralization) [22]: 0.001 µg/mL | IC80 ug/ml (virus neutralization) [22]: 0.003 µg/mL | IC50 ug/ml (virus neutralization) [23]: > 50 µg/mL | IC80 ug/ml (virus neutralization) [23]: > 50 µg/mL | IC50 ug/ml (virus neutralization) [24]: 0.003 µg/mL | IC80 ug/ml (virus neutralization) [24]: 0.015 µg/mL | background substracted RFUs (HCV E2 (HCV)): 0 RFU | background substracted RFUs [26]: 0 RFU | Kd [44]: 450 nM | Kd [45]: 160 nM | Kd [46]: 110 nM | Autoreactivity (Athena) (SSB autoantigen [35]): 2 | Autoreactivity (Athena) (SSA autoantigen [36]): 4 | Autoreactivity (Athena) (Histone autoantigen [37]): 2 | Autoreactivity (Athena) (Sm autoantigen [38]): 0 | Autoreactivity (Athena) (RNP autoantigen [39]): 2 | Autoreactivity (Athena) (centromere B autoantigen [40]): 3 | Autoreactivity (Athena) (Scl 70 autoantigen [41]): 1 | Autoreactivity (Athena) (Jo 1 autoantigen [42]): 0

17b original CCR5 binding site antibody
Reactivity in Luminex Units (Luminex Units) (HIV-1 Env gp41 (HIV-1)): 1430
